The data set concerns the target T1, ATF3 (recombinant human) (Homo sapiens, UniProt P18847 1-181).
T1 sequence: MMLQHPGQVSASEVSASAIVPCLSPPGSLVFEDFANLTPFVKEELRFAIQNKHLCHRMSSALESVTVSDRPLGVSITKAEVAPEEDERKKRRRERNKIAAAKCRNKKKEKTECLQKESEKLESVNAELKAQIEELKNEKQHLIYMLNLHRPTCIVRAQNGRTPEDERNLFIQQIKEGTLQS
The data set is described as follows: EMSA.

B1: HyATF3-2 probe (dsDNA)
DNA 1: TTATGTTTACTGACGTTTCCCTGCCTTCTA
DNA 2: TAGAAGGCAGGGAAACGTCAGTAAACATAA
On to B1, for which the binding result was “binds”.

B2: HyATF3-1 probe (dsDNA)
DNA 1: GAAAAAAACGTCAGAAAACAAGTGACGTATTATA
DNA 2: TATAATACGTCACTTGTTTTCTGACGTTTTTTTC
Turning to B2, the binding result is “binds”.

Values taken from paper PMC9436372.
